According to the supplement of paper PMC9112550, “Optimization of the antimicrobial peptide Bac7 by deep mutational scanning” (BMC Biology, 2022):

Tested on: Escherichia coli TOP10
Experiment: shrunken log2 fold change of peptide-encoding DNA abundance (4.5 h post-induction vs induction); higher = less antimicrobial activity (less host growth inhibition)
Settings: time post-induction: 4.5 h; library: site-saturation at positions 5, 18, 19, 20
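Note: peptides expressed intracellularly from a pBAD plasmid library in pooled LB shake-flask culture, induced with 0.3% L-arabinose, DNA abundance read by NGS, three biological replicates, DESeq2 with apeglm shrinkage.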

Sequence | shrunken log2 fold change
RRIRNRPPRLPRPRPRPEPEPRP | 0.0273
RRIRNRPPRLPRPRPRPHHWPRP | -0.0959
RRIRIRPPRLPRPRPRPPVPPRP | 0.233
RRIRVRPPRLPRPRPRPKWWPRP | 0.0767
RRIRPRPPRLPRPRPRPSINPRP | -0.756
RRIRPRPPRLPRPRPRPAQQPRP | 0.263
RRIRKRPPRLPRPRPRPSAFPRP | 0.619
RRIRWRPPRLPRPRPRPNTAPRP | 0.055
RRIRHRPPRLPRPRPRPDPWPRP | 0.0282
RRIRARPPRLPRPRPRPSFEPRP | 0.327
RRIRKRPPRLPRPRPRPRCDPRP | 0.288
RRIRARPPRLPRPRPRPTDSPRP | 0.00832
RRIRERPPRLPRPRPRPYHYPRP | -0.102
RRIRWRPPRLPRPRPRPENYPRP | -0.122
RRIRDRPPRLPRPRPRPYCRPRP | 0.0533
RRIRERPPRLPRPRPRPCCPPRP | -0.159
RRIRKRPPRLPRPRPRPIVAPRP | 0.399
RRIRERPPRLPRPRPRPIPSPRP | -0.109
RRIRTRPPRLPRPRPRPQNQPRP | -0.584
RRIRHRPPRLPRPRPRPKHQPRP | -0.195
RRIRLRPPRLPRPRPRPWSWPRP | 0.0711
RRIRPRPPRLPRPRPRPLEHPRP | -0.565

Sequence | shrunken log2 fold change
RRIRFRPPRLPRPRPRPYVAPRP | -0.62
RRIRRRPPRLPRPRPRPLQMPRP | -0.133
RRIRRRPPRLPRPRPRPDWSPRP | 0.182
RRIRCRPPRLPRPRPRPQGHPRP | -0.0916
RRIRQRPPRLPRPRPRPKQHPRP | -0.239
RRIRPRPPRLPRPRPRPCYRPRP | -0.154
RRIRIRPPRLPRPRPRPLCYPRP | -1.07
RRIRCRPPRLPRPRPRPSMNPRP | -0.757
RRIRVRPPRLPRPRPRPITSPRP | -0.21
RRIRMRPPRLPRPRPRPLHRPRP | 0.304
RRIRQRPPRLPRPRPRPWDKPRP | -0.153
RRIRHRPPRLPRPRPRPQNKPRP | -0.654
RRIRSRPPRLPRPRPRPFCVPRP | -0.128
RRIRARPPRLPRPRPRPIFEPRP | 0.125
RRIRGRPPRLPRPRPRPVCAPRP | 1.06
RRIRTRPPRLPRPRPRPNCWPRP | 0.0359
RRIRWRPPRLPRPRPRPMSGPRP | 0.118
RRIRWRPPRLPRPRPRPGVHPRP | 0.135
RRIRMRPPRLPRPRPRPIKWPRP | -0.00876
RRIRGRPPRLPRPRPRPEHAPRP | 2.78
RRIRARPPRLPRPRPRPLMSPRP | 0.302
RRIRERPPRLPRPRPRPIMYPRP | -1.08

Sequence | shrunken log2 fold change
RRIRKRPPRLPRPRPRPTIYPRP | -0.0381
RRIRGRPPRLPRPRPRPCMAPRP | 0.703
RRIRPRPPRLPRPRPRPDIRPRP | -0.0755
RRIRHRPPRLPRPRPRPVKAPRP | -0.0779
RRIRMRPPRLPRPRPRPYMRPRP | 0.0391
RRIRMRPPRLPRPRPRPVDKPRP | 0.0379
RRIRQRPPRLPRPRPRPAYRPRP | -0.216
RRIRCRPPRLPRPRPRPSYIPRP | -0.675
RRIRERPPRLPRPRPRPDTLPRP | -0.00753
RRIRQRPPRLPRPRPRPGSTPRP | -0.146
RRIRVRPPRLPRPRPRPYMMPRP | -0.00989
RRIRARPPRLPRPRPRPSKNPRP | 0.235
RRIRLRPPRLPRPRPRPGQCPRP | -0.0373
RRIRERPPRLPRPRPRPSKFPRP | -0.199
RRIRQRPPRLPRPRPRPTHYPRP | 0.975
RRIRRRPPRLPRPRPRPPILPRP | -0.1
RRIRQRPPRLPRPRPRPACFPRP | 0.315
RRIRARPPRLPRPRPRPDGIPRP | 0.446
RRIRLRPPRLPRPRPRPGIPPRP | 0.215
RRIRMRPPRLPRPRPRPVKQPRP | 0.0432
RRIRNRPPRLPRPRPRPVNWPRP | -0.0184
RRIRRRPPRLPRPRPRPNGAPRP | -0.151

Sequence | shrunken log2 fold change
RRIRARPPRLPRPRPRPEIRPRP | 0.132
RRIRFRPPRLPRPRPRPPAYPRP | 0.127
RRIRKRPPRLPRPRPRPNQYPRP | -0.0702
RRIRCRPPRLPRPRPRPAHRPRP | 0.392
RRIRQRPPRLPRPRPRPYLTPRP | -0.209
RRIRPRPPRLPRPRPRPWQPPRP | -0.0506
RRIRLRPPRLPRPRPRPGRMPRP | 0.123
RRIRVRPPRLPRPRPRPLYPPRP | -0.586
RRIRTRPPRLPRPRPRPKKMPRP | 0.0999
RRIRYRPPRLPRPRPRPMTYPRP | -0.0131
RRIRKRPPRLPRPRPRPEKWPRP | 0.422
RRIRVRPPRLPRPRPRPDNQPRP | -0.0991
RRIRRRPPRLPRPRPRPARQPRP | -0.0115
RRIRDRPPRLPRPRPRPEYNPRP | -0.116
RRIRCRPPRLPRPRPRPKYQPRP | -0.0383
RRIRHRPPRLPRPRPRPEILPRP | -0.00654
RRIRYRPPRLPRPRPRPARVPRP | -0.0653
RRIRHRPPRLPRPRPRPVSLPRP | -0.0931
RRIRYRPPRLPRPRPRPLSMPRP | -0.036
RRIRVRPPRLPRPRPRPLMWPRP | 0.157
RRIRLRPPRLPRPRPRPGHAPRP | 0.21
RRIRPRPPRLPRPRPRPHTCPRP | -0.123

Sequence | shrunken log2 fold change
RRIRKRPPRLPRPRPRPEINPRP | 0.0365
RRIRYRPPRLPRPRPRPSVHPRP | -0.284
RRIRYRPPRLPRPRPRPWMSPRP | -0.0725
RRIRMRPPRLPRPRPRPEASPRP | 3.48
RRIRLRPPRLPRPRPRPFRGPRP | -0.0479
RRIRWRPPRLPRPRPRPWFMPRP | -0.222
RRIRSRPPRLPRPRPRPRWQPRP | 0.166
RRIRPRPPRLPRPRPRPSGYPRP | -0.204
RRIRWRPPRLPRPRPRPELHPRP | 0.308
RRIRSRPPRLPRPRPRPAVPPRP | 0.168
RRIRLRPPRLPRPRPRPGTNPRP | -0.0983
RRIRHRPPRLPRPRPRPYAAPRP | -0.519
RRIRDRPPRLPRPRPRPVEIPRP | -0.0399
RRIRIRPPRLPRPRPRPMAHPRP | -0.0137
RRIRGRPPRLPRPRPRPAVRPRP | 0.312
RRIRWRPPRLPRPRPRPGYLPRP | 0.0065
RRIRYRPPRLPRPRPRPDWGPRP | -0.0597
RRIRQRPPRLPRPRPRPGFDPRP | 2.69
RRIRNRPPRLPRPRPRPNDHPRP | -0.153
RRIRHRPPRLPRPRPRPGDWPRP | -0.133
RRIRERPPRLPRPRPRPFASPRP | 0.00624
